In article PMC12350670, “The characterization of variable new antigen receptors targeting FAP isolated from a novel immunized library” (Communications Biology, 2025):

T1: recombinant human fibroblast activation protein (human, UniProt Q12884 39-757, biotin (EZ-link NHS-PEG4-biotin))
T1 construct: also called hFAP; human FAP; source: bought: Acro Biosystems
T1 sequence: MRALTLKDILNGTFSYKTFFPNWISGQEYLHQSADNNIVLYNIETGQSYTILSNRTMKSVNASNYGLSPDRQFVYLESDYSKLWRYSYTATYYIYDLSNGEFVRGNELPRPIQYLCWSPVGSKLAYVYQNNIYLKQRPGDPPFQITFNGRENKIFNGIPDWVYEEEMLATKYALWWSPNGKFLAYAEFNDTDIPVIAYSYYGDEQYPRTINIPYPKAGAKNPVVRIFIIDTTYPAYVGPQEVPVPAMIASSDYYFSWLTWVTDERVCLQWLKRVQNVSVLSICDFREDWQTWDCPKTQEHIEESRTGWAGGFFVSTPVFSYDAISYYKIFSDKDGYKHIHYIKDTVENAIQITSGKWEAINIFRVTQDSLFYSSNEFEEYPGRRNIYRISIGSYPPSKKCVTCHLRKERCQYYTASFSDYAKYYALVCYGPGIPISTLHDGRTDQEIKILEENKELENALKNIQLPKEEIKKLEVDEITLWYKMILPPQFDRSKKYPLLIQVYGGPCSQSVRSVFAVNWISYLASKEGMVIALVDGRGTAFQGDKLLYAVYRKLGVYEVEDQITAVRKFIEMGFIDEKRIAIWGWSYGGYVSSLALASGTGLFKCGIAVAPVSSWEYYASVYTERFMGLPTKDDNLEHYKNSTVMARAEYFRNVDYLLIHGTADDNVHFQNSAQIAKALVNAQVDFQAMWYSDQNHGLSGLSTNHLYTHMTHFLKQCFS

T2: FAP on CWR-R1^FAP cells (human, UniProt Q12884 1-760)
T2 construct: also called CWR-R1-EnzR^FAP
T2 sequence (looked up): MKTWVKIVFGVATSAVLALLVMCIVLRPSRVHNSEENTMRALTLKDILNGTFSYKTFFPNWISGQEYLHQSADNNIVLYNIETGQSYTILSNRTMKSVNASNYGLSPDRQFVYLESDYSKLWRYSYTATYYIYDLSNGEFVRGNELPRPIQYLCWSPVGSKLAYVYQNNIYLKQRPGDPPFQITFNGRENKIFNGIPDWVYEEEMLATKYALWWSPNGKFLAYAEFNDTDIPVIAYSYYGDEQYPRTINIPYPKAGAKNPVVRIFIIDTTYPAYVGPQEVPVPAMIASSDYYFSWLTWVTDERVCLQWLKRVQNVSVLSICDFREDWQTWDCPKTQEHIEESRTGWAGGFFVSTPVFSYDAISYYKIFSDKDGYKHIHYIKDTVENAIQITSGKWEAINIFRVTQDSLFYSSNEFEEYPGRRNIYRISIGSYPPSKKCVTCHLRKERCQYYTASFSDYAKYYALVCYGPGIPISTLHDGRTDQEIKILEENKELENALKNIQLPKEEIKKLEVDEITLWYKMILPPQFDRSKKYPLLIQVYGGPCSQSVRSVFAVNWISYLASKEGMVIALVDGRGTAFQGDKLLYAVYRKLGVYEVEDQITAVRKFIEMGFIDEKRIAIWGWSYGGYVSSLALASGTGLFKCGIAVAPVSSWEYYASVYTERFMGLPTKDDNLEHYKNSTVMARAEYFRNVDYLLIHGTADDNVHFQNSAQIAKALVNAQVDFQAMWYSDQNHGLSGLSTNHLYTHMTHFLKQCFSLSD

T3: FAP on hPrCSC-44 cells (human (endogenous in hPrCSC-44), UniProt Q12884 1-760)
T3 construct: also called endogenous FAP; source: endogenous, hPrCSC-44 immortalized cancer-associated fibroblast cells, on cells
T3 sequence (looked up): T2 sequence (looked up)

B1: NGS2405-Fc (Fc fusion, nurse shark (Ginglymostoma cirratum))
chain: ARVDQTPQTITKETGESLTINCVLRDSNCALSFTYWYRKKSGSTNEESISKGGRYVETVNSGSKSFSLRINDLTVEDSGTYRCNVYVGGGCPHWIDVYGDGTAVTVN
notes: Bivalent human IgG1 Fc fusion (vector TGEX-SCblue); also called VNAR-Fc; source: ExpiCHO-S, transfected, purified (protein A, SEC)
B2: H4-Fc (Fc fusion, nurse shark (Ginglymostoma cirratum))
chain: ARVDQTPQTITKETGESLTINCVLRDSNCALSSTYWYRKKSGSTNEESISKGGRYVETVNSGSKSFSLRINDLTVEDSGTYRCNVYVAGMSPCLSWGDVYGDGTAVTVN
notes: Bivalent human IgG1 Fc fusion (vector TGEX-SCblue); also called anti-FAP VNAR H4; VNAR-Fc; source: ExpiCHO-S, transfected, purified (protein A, SEC)

Tests used:
[1] = target: T1, recombinant human fibroblast activation …; experiment: BLI; biotinylated bait protein (30 nM) loaded on Octet streptavidin (SAX) biosensors; serially diluted VNAR-Fc (300-0.412 nM) as analyte; PBS with 1% BSA; kinetic analysis with a bivalent analyte model; settings: both partners purified
[2] = target: T2, FAP on CWR-R1^FAP cells; experiment: flow cytometry on cells; cells incubated with VNAR-Fc (several concentrations, or fixed 100 nM) 1 h on ice, detected with PE-labeled anti-human IgG Fc; KD from logistic fitting of mean fluorescence intensity; settings: one partner purified
[3] = target: T3, FAP on hPrCSC-44 cells; experiment: as above; settings: one partner purified

Binder	Kd [1] [nM]	Kd [2] [nM]	Kd [3] [nM]
B1	0.356	8.44	6.03
B2	0.0141	12	15.6
